Assay results taken from PMC8534003, “The Chemokine-Based Peptide, CXCL9(74-103), Inhibits Angiogenesis by Blocking Heparan Sulfate Proteoglycan-Mediated Signaling of Multiple Endothelial Growth Factors” (Cancers, 2021).

Experiments:
[1] = system: human microvascular endothelial cells (HMVECs); experiment: xCELLigence adhesion assay; assay type: cell-based; conditions: 50 ng/mL, 1 h, compared to untreated cells
Experimental: The wells of an E-plate (ACEA Biosciences, Inc.) were washed and coated with 0.1% (v/v) gelatin in phosphate-buffered saline (PBS) at 37 °C for 1 h. Following a washing step, wells were incubated with 0.1% (v/v) bovine serum albumin (BSA) in PBS at 37 °C for 1 h. After washing, 50 µL basal MCDB131 medium was added and the plate was allowed to equilibrate at 37 °C. HMVECs were harvested and seeded at 4 × 10^4 cells/well together with 50 ng/mL VEGF165 with or without 0.03, 0.3 or 3 µM of CXCL9(74-103) or 3 µM of CXCL9(86-103) in 100 µL control medium (vide supra). Real-time changes in electrical impedance depicted as cell indices, as measure for cell adhesion and spreading, were analyzed using the xCELLigence® RTCA DP System. The adhesion of HMVECs was analyzed 1 h after seeding.

[2] = system: human microvascular endothelial cells (HMVECs); experiment: Endothelial cell proliferation assay (MTT or ATP lite); assay type: cell-based; conditions: EGF, VEGF165 5 ng/mL or FGF-2 3 ng/mL as single stimulus
Experimental: The ability of the CXCL9-derived peptides to inhibit growth factor-induced proliferation of endothelial cells was assessed. HMVECs were seeded at 5 × 10^3 cells/well in EBM™-2 medium containing 1% (v/v) FCS (proliferation medium). After settling of the cells, they were stimulated with EGF, VEGF165 (both 5 ng/mL) or FGF-2 (3 ng/mL) as a single stimulus or in combination with CXCL9(86-103) or CXCL9(74-103) at 0.3 or 3 µM in proliferation medium or left untreated. HMVECs were also treated with 0.3 or 3 µM of CXCL9(74-103) or 3 µM of CXCL9(86-103) alone to assess the effect of CXCL9-derived peptide treatment on spontaneous proliferation. After 3 to 4 days, a 3-(4,5-dimethylthiazol-2-yl)-2,5-diphenyl tetrazolium bromide (MTT) or ATP lite assay was performed. The ATP lite assay was performed according to the manufacturer’s instructions (Perkin Elmer, Waltham, MA). When MTT was used as substrate, the medium was replaced with 200 µL of MTT solution (RPMI without phenol red containing 0.4 g/L MTT) and the cells were incubated at 37 °C and 5% CO2 in the dark for 4 hours. Then, the MTT solution was discarded and the formed formazan crystals were dissolved in 200 µL acidic propanol [0.04 M HCl, 0.1% (v/v) NP-40 in isopropanol] under continuous shaking in the dark for 10 min. The optical densities were measured at 570 nm and 630 nm (reference wavelength).

[3] = system: human microvascular endothelial cells (HMVECs); experiment: xCELLigence chemotaxis assay (HMVEC migration); assay type: cell-based; conditions: EGF 10 ng/mL, FGF-2 30 ng/mL or VEGF165 10 ng/mL in lower chamber
Experimental: To evaluate the effect of the CXCL9-derived peptides on growth factor-induced endothelial cell migration, the xCELLigence® real-time cell analyzer (RTCA DP) system (ACEA Biosciences, Inc.; San Diego, CA, USA) was used. First, 160 µL MCDB131 medium (Gibco) supplemented with 0.4% (v/v) FCS (control medium) or 160 µL control medium with 30 ng/mL FGF-2, 10 ng/mL VEGF165 or 10 ng/mL EGF were added to the lower chamber of a cell invasion/migration (CIM)-Plate (ACEA Biosciences, Inc.). After assembly of the lower and upper chamber, 50 µL of serum-free MCDB131 medium was added in the upper wells. Following equilibration of the plate at 37 °C for 1 h, HMVECs were added in the upper chamber at 4 × 10^4 cells in 100 µL/well. CXCL9(74-103) or CXCL9(86-103) was added together with the cells in the upper compartment at a concentration of 0.3 or 3 µM. The assembled CIM-Plate was left at room temperature for 30 min to allow the cells to settle onto the membrane. Finally, the plate was placed in the instrument at 37 °C to monitor cell migration for 15 h. Cell migration from one compartment to the other was recorded (one recording every minute) as changes in electrical impedance. These changes were converted into cell indices, as a measure of cell migration.

[4] = fold lower affinity than FGF-2; cited from earlier work
From the text: In our present study, we wanted to explore the potential of CXCL9(74-103), a high affinity GAG-binding peptide, to interfere with angiogenesis by targeting growth factor-induced signaling cascades and associated processes. […] The obtained KD value lies within the range of the concentrations that were applied in the different in vivo and in vitro assays reported here. FGF-2-mediated proliferation, chemotaxis and sprouting in vitro was diminished by CXCL9(74-103). Also in vivo, CXCL9(74-103) treatment attenuated FGF-2-mediated neovascularization in the Matrigel plug assay. The inhibitory mechanism responsible for countering FGF-2 could be that (1) by direct interaction with FGF-2, CXCL9(74-103) can t ...

B1: VEGF165: human recombinant VEGF165 (Biolegend), stimulus (protein)
chain: MNFLLSWVHWSLALLLYLHHAKWSQAAPMAEGGGQNHHEVVKFMDVYQRSYCHPIETLVDIFQEYPDEIEYIFKPSCVPLMRCGGCCNDEGLECVPTEESNITMQIMRIKPHQGQHIGEMSFLQHNKCECRPKKDRARQENPCGPCSERRKHLFVQDPQTCKCSCKNTDSRCKARQLELNERTCRCDKPRR
adhesion in response to VEGF165 alone [1]: HMVECs adhered more profoundly to the substratum compared to untreated cells
enhancement of proliferation by growth factor alone [2]: significant enhancement of proliferation
enhancement of migration by growth factor alone [3]: significant enhancement of endothelial cell migration
affinity for heparin compared to FGF-2 [4]: 8 fold
